pIC50: −log10 of the molar value.
Columns and labels:
[1] = target: tau monoclonal antibody (Example 5, FIG. 5); test: competitive ELISA
[2] = target: tau monoclonal antibody (Example 5, FIG. 5); test: competitive ELISA; printed as apparent affinity = antigen concentration for 50% competition with prototype tau type IA

For “deletion mutant SEQ ID NO: 21 (268-333,R4;del 239-267) (from UniProt O02828 288-353)”, the fold decrease in affinity against prototype tau type IA (SEQ ID NO:1) [1] was 1000 fold.
For “prototype tau type IA (SEQ ID NO:1) (239-333,R4) (from UniProt O02828 259-353)”, the pIC50 [2] was 8.00.
